Test results reported in the supplement of paper PMC10065799, “High-throughput profiling of sequence recognition by tyrosine kinases and SH2 domains using bacterial peptide display” (eLife, 2023).

target: FGFR3 (UniProt P22607); experiment: phosphorylation enrichment, bacterial display (enrichment ratio); higher = better substrate or ligand; peptides without Tyr show the background
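Further: 11-residue human phosphosite peptides and single-mutation variants displayed on the E. coli surface, counted by deep sequencing, each peptide's frequency after selection divided by its frequency in the unselected input library; frequency after pTyr selection over input frequency; kinase dosed for 20-30% of maximal phosphorylation in three min.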

Chain of FGFR3 (P22607 whole entry, looked up): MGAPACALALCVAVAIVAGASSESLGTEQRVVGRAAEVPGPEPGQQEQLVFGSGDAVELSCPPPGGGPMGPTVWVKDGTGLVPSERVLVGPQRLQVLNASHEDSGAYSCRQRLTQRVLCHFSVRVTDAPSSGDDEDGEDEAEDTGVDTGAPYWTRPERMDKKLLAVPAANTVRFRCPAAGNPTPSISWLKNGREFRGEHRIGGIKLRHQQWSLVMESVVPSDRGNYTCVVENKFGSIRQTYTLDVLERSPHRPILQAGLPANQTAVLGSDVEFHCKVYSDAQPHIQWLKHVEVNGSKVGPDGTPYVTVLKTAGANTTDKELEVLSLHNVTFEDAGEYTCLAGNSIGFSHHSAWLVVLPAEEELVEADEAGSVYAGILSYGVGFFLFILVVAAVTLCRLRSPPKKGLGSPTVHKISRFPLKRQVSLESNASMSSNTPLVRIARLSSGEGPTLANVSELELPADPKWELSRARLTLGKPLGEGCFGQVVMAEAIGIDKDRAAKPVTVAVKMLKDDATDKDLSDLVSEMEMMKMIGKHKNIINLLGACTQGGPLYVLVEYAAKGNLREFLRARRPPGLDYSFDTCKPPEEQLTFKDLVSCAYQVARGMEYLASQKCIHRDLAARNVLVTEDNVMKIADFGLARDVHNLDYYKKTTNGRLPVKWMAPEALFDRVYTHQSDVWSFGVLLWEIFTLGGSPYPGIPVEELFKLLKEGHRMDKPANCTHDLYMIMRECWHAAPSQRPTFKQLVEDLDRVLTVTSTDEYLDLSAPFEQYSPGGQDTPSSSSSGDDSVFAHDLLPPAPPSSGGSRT

| Sequence | phosphorylation enrichment |
| --- | --- |
| IENKLYGMSDS [RET_Y1062_P1067S] | 0.511 |
| GVRLYYRVRES [RB1_Y454_M457R] | 0.781 |
| KGERGYPGTPG [COL4A1_Y348] | 0.406 |
| ANKNVYEVEPT [MEGF10_Y1075_R1072K] | 0.7 |
| QQTFTYDSGIH [JUP_Y22_YF] | 1.42 |
| ALKKPYGVLYK [RPF2_Y59] | 0.516 |
| SAEEDYIADAK [KCNT1_Y876_M877I] | 0.797 |
| SECCKYKIDNP [OSMR_Y689] | 0.488 |
| FLAVGYHKLHI [IDS_Y225_P228L] | 0.804 |
| TNYRLYLRSLE [MTM1_Y71] | 0.776 |
| YQGGTYSKACT [FGG_Y380_S384C] | 0.529 |
| LSDGPYSNPFE [EPOR_Y485_YF] | 0.614 |
| DRFANYIEKVR [DES_Y122] | 0.508 |
| PGIRMYRVQFN [LRFN1_Y454_Q455R_YF] | 0.618 |
| WKEIEYEVVRD [CPS1_Y634] | 0.754 |
| GHLFANDWISI [BEST1_Y227_Y227N_YF] | 0.484 |
| KHGGNYVPAPE [OSCP1_Y237_K242E] | 0.477 |
| GMAHNYRNRSQ [AASS_Y188_S191R] | 0.401 |
| LAAPKYKLNVD [SMARCA2_Y1190_A1188P] | 0.518 |
| PQAVRYIYTID [DCX_Y103_G100A] | 0.74 |
| VSGIPYSQPKQ [NEU1_Y251_G252S] | 0.443 |
| DAHFTYSRFPW [LY75_Y888_D884A_YF] | 0.736 |
| NDHHVYLEGTL [ALDOB_Y223] | 0.578 |
| HSRTRYERNIE [F2_Y434] | 0.663 |
| QNTGDYCDLYG [PTPN11_Y62_Y63C] | 4.13 |
| LVRPPYSFSAL [FOXI1_Y126_YF] | 0.434 |
| LDCNEYFRDLN [HPRT1_Y198_Y195C] | 1.34 |
| RLQEGYDHSYY [ESD_Y258] | 0.928 |
| ATYRGYDSDNP [MMUT_Y146_H143Y] | 0.543 |

tested on: Fer (mouse); experiment: as above

| Sequence | phosphorylation enrichment |
| --- | --- |
| IENKLYGMSDS [RET_Y1062_P1067S] | 0.646 |
| GVRLYYRVRES [RB1_Y454_M457R] | 0.483 |
| KGERGYPGTPG [COL4A1_Y348] | 0.399 |
| ANKNVYEVEPT [MEGF10_Y1075_R1072K] | 0.36 |
| QQTFTYDSGIH [JUP_Y22_YF] | 0.896 |
| ALKKPYGVLYK [RPF2_Y59] | 0.5 |
| SAEEDYIADAK [KCNT1_Y876_M877I] | 0.608 |
| SECCKYKIDNP [OSMR_Y689] | 0.407 |
| FLAVGYHKLHI [IDS_Y225_P228L] | 0.432 |
| TNYRLYLRSLE [MTM1_Y71] | 0.524 |
| YQGGTYSKACT [FGG_Y380_S384C] | 0.38 |
| LSDGPYSNPFE [EPOR_Y485_YF] | 0.822 |
| DRFANYIEKVR [DES_Y122] | 0.41 |
| PGIRMYRVQFN [LRFN1_Y454_Q455R_YF] | 0.611 |
| WKEIEYEVVRD [CPS1_Y634] | 0.583 |
| GHLFANDWISI [BEST1_Y227_Y227N_YF] | 0.427 |
| KHGGNYVPAPE [OSCP1_Y237_K242E] | 0.36 |
| GMAHNYRNRSQ [AASS_Y188_S191R] | 0.358 |
| LAAPKYKLNVD [SMARCA2_Y1190_A1188P] | 0.291 |
| PQAVRYIYTID [DCX_Y103_G100A] | 0.67 |
| VSGIPYSQPKQ [NEU1_Y251_G252S] | 0.467 |
| DAHFTYSRFPW [LY75_Y888_D884A_YF] | 0.499 |
| NDHHVYLEGTL [ALDOB_Y223] | 0.46 |
| HSRTRYERNIE [F2_Y434] | 1.14 |
| QNTGDYCDLYG [PTPN11_Y62_Y63C] | 1.39 |
| LVRPPYSFSAL [FOXI1_Y126_YF] | 0.479 |
| LDCNEYFRDLN [HPRT1_Y198_Y195C] | 0.697 |
| RLQEGYDHSYY [ESD_Y258] | 0.573 |
| ATYRGYDSDNP [MMUT_Y146_H143Y] | 0.409 |

target: Fes (UniProt P07332); experiment: as above
Sequence (P07332 whole entry, looked up): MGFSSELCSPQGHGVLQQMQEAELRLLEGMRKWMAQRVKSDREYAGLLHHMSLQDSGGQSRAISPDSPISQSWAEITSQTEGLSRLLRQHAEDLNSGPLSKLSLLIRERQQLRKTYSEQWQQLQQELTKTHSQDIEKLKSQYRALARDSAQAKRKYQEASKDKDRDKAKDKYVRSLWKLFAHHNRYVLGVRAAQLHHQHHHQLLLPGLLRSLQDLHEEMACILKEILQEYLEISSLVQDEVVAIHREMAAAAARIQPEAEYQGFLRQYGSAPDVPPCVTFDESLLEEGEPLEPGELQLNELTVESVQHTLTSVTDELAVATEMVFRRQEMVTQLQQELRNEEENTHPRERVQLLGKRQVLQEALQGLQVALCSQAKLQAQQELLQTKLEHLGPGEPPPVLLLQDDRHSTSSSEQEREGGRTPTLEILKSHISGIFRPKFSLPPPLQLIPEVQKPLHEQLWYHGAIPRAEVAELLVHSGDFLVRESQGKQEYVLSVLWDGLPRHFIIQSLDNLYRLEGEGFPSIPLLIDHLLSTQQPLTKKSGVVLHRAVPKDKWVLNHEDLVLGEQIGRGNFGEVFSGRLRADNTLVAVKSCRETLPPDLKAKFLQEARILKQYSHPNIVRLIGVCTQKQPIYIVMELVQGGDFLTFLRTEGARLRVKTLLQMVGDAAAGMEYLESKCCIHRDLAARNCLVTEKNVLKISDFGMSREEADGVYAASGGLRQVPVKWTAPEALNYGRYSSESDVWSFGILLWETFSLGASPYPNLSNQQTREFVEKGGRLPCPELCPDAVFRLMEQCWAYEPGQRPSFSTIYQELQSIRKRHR

| Sequence | phosphorylation enrichment |
| --- | --- |
| IENKLYGMSDS [RET_Y1062_P1067S] | 0.948 |
| GVRLYYRVRES [RB1_Y454_M457R] | 1.08 |
| KGERGYPGTPG [COL4A1_Y348] | 0.433 |
| ANKNVYEVEPT [MEGF10_Y1075_R1072K] | 0.938 |
| QQTFTYDSGIH [JUP_Y22_YF] | 1.78 |
| ALKKPYGVLYK [RPF2_Y59] | 0.775 |
| SAEEDYIADAK [KCNT1_Y876_M877I] | 1.48 |
| SECCKYKIDNP [OSMR_Y689] | 0.786 |
| FLAVGYHKLHI [IDS_Y225_P228L] | 1.14 |
| TNYRLYLRSLE [MTM1_Y71] | 1.3 |
| YQGGTYSKACT [FGG_Y380_S384C] | 0.74 |
| LSDGPYSNPFE [EPOR_Y485_YF] | 1.16 |
| DRFANYIEKVR [DES_Y122] | 0.759 |
| PGIRMYRVQFN [LRFN1_Y454_Q455R_YF] | 1.14 |
| WKEIEYEVVRD [CPS1_Y634] | 1.09 |
| GHLFANDWISI [BEST1_Y227_Y227N_YF] | 0.789 |
| KHGGNYVPAPE [OSCP1_Y237_K242E] | 0.626 |
| GMAHNYRNRSQ [AASS_Y188_S191R] | 0.629 |
| LAAPKYKLNVD [SMARCA2_Y1190_A1188P] | 0.961 |
| PQAVRYIYTID [DCX_Y103_G100A] | 1.42 |
| VSGIPYSQPKQ [NEU1_Y251_G252S] | 0.474 |
| DAHFTYSRFPW [LY75_Y888_D884A_YF] | 1.09 |
| NDHHVYLEGTL [ALDOB_Y223] | 0.756 |
| HSRTRYERNIE [F2_Y434] | 0.986 |
| QNTGDYCDLYG [PTPN11_Y62_Y63C] | 1.08 |
| LVRPPYSFSAL [FOXI1_Y126_YF] | 0.618 |
| LDCNEYFRDLN [HPRT1_Y198_Y195C] | 1.73 |
| RLQEGYDHSYY [ESD_Y258] | 1.01 |
| ATYRGYDSDNP [MMUT_Y146_H143Y] | 0.751 |

target: Fyn (UniProt P06241); experiment: as above
Sequence (P06241 whole entry, looked up): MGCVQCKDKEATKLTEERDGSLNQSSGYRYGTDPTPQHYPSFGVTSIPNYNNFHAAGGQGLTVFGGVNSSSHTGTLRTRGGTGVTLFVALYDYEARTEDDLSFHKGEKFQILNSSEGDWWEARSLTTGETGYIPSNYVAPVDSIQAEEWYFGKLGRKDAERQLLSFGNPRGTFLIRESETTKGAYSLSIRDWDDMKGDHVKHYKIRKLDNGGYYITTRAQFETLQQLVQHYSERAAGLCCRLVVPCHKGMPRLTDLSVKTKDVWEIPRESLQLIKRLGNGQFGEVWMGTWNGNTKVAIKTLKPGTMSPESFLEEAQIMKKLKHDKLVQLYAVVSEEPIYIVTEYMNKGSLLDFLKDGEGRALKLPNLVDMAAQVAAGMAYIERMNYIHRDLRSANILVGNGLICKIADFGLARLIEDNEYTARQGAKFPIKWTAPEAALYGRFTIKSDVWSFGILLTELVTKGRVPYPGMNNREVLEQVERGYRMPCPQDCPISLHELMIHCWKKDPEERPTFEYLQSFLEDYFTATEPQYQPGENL

| Sequence | phosphorylation enrichment |
| --- | --- |
| IENKLYGMSDS [RET_Y1062_P1067S] | 0.438 |
| GVRLYYRVRES [RB1_Y454_M457R] | 0.435 |
| KGERGYPGTPG [COL4A1_Y348] | 0.311 |
| ANKNVYEVEPT [MEGF10_Y1075_R1072K] | 4.42 |
| QQTFTYDSGIH [JUP_Y22_YF] | 1.18 |
| ALKKPYGVLYK [RPF2_Y59] | 0.503 |
| SAEEDYIADAK [KCNT1_Y876_M877I] | 0.515 |
| SECCKYKIDNP [OSMR_Y689] | 0.411 |
| FLAVGYHKLHI [IDS_Y225_P228L] | 0.647 |
| TNYRLYLRSLE [MTM1_Y71] | 0.552 |
| YQGGTYSKACT [FGG_Y380_S384C] | 0.383 |
| LSDGPYSNPFE [EPOR_Y485_YF] | 1.77 |
| DRFANYIEKVR [DES_Y122] | 0.434 |
| PGIRMYRVQFN [LRFN1_Y454_Q455R_YF] | 0.656 |
| WKEIEYEVVRD [CPS1_Y634] | 0.553 |
| GHLFANDWISI [BEST1_Y227_Y227N_YF] | 0.399 |
| KHGGNYVPAPE [OSCP1_Y237_K242E] | 0.398 |
| GMAHNYRNRSQ [AASS_Y188_S191R] | 0.487 |
| LAAPKYKLNVD [SMARCA2_Y1190_A1188P] | 0.546 |
| PQAVRYIYTID [DCX_Y103_G100A] | 7.37 |
| VSGIPYSQPKQ [NEU1_Y251_G252S] | 0.398 |
| DAHFTYSRFPW [LY75_Y888_D884A_YF] | 3.13 |
| NDHHVYLEGTL [ALDOB_Y223] | 0.468 |
| HSRTRYERNIE [F2_Y434] | 0.465 |
| QNTGDYCDLYG [PTPN11_Y62_Y63C] | 1.49 |
| LVRPPYSFSAL [FOXI1_Y126_YF] | 0.419 |
| LDCNEYFRDLN [HPRT1_Y198_Y195C] | 0.906 |
| RLQEGYDHSYY [ESD_Y258] | 0.645 |
| ATYRGYDSDNP [MMUT_Y146_H143Y] | 0.528 |
